Source: patent US20250376539A1 (KIRA PHARMACEUTICALS SUZHOU, published 2025)
Numbering of substitutions follows the chain as printed. Each block holds one binder with its values, some of them ahead of it.

Assays:
[1] = target: T1, recombinant human complement C2 (NP_000054.2), C-terminal 6His-tag, made in house (CHO cell expression) (human, UniProt P06681 21-752); experiment: drawn kinetic table; method and antigen not printed on the sheet, legend paragraph 101 says only anti-C2 antibodies; human C2 taken from the context of Examples 5 and 10
T1 construct: a linker before the tag is not described; also called human C2; Human C2
T1 sequence: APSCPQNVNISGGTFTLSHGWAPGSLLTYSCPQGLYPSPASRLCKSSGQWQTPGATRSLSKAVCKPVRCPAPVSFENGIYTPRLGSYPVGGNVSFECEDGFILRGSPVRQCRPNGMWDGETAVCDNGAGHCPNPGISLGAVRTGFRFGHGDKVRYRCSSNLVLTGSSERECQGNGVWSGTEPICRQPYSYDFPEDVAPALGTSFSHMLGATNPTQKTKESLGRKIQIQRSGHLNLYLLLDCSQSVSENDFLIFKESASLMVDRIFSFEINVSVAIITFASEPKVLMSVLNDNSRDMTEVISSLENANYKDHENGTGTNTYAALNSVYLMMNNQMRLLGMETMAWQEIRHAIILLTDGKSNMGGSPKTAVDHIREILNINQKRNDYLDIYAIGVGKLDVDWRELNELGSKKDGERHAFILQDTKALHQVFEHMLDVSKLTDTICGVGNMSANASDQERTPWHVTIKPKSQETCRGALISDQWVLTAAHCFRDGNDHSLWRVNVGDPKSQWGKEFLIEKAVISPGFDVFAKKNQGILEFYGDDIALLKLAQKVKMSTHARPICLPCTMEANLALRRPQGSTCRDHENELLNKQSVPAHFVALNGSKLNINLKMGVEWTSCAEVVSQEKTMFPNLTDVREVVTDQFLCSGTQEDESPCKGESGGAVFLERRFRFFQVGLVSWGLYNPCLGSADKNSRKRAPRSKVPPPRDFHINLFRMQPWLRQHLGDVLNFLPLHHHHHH

[2] = target: T2, recombinant cynomolgus (cyno) complement C2 (XP_005553508.1), C-terminal 6His-tag, made in house (CHO cell … (cynomolgus monkey (Macaca fascicularis), UniProt P06681 21-752 (human entry))); experiment: ELISA on cyno C2, OD450nm against log Ab conc. (nmol/L)
T2 construct: also called cyno C2; Cyno C2
T2 chain: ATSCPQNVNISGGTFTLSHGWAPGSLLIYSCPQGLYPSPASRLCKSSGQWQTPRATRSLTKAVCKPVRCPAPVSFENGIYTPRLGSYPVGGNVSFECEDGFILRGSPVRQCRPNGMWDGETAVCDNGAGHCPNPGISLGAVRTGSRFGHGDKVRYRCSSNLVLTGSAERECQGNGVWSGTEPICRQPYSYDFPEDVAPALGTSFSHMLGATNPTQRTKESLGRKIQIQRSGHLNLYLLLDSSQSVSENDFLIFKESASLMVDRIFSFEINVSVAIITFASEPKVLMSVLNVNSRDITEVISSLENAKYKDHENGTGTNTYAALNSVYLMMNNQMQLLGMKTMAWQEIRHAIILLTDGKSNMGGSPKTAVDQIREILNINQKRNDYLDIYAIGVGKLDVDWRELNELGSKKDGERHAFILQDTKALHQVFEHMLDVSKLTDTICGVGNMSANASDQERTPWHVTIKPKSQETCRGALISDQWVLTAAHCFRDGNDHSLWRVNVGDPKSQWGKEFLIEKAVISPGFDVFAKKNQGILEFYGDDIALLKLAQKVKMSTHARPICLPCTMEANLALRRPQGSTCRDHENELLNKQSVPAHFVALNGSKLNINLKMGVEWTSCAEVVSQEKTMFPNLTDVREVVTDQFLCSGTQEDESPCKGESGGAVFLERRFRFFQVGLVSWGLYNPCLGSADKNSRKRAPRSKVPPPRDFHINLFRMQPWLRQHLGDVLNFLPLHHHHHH

[3] = target: T3, recombinant cyno C2a, C-terminal 6His-tag, made in house (CHO cell expression) (cynomolgus monkey, UniProt P06681 244-752 (human entry)); experiment: ELISA
T3 chain: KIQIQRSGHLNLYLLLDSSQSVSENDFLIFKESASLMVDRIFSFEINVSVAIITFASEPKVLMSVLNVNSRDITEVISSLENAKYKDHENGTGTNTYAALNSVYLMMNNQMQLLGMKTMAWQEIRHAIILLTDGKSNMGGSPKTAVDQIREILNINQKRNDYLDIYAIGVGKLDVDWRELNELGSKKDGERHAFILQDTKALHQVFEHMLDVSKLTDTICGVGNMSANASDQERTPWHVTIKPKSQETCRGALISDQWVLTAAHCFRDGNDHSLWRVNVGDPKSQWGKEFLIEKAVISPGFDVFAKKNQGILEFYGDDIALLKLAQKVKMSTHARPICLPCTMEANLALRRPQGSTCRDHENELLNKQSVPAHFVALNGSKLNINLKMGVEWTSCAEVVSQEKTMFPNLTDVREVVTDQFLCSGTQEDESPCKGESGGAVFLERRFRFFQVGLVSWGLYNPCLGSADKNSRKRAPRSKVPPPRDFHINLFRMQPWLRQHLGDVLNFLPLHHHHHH

[4] = target: T1, recombinant human complement C2 …; experiment: ELISA
[5] = target: T4, recombinant human C2a, C-terminal 6His-tag, made in house (CHO cell expression) (human, UniProt P06681 244-752); experiment: ELISA
T4 sequence: T3 chain with S18C, V68D, I73M, K84N, Q112R, K117E, Q148H

[6] = target: T1, recombinant human complement C2 …; experiment: kinetic binding measurement, table 'Human C2 binding affinity' with sensorgrams below it (assay not named on the sheet); lot 20211215P05
[7] = target: T1, recombinant human complement C2 …; experiment: kinetic binding measurement, table 'Human C2 binding affinity' with sensorgrams below it (assay not named on the sheet); lot 20211228P03
[8] = target: T2, recombinant cynomolgus (cyno) …; experiment: BLI (Gator), antibody on probe; 600 s association at pH 7.4, 600 s dissociation at pH 7.4
Method: (§1) The histidine mutant constructs in Table 4 were tested for their pH-dependent dissociation from human C2. Probe-immobilized anti-C2 antibodies were incubated with C2 at pH 7.4 for 600s, followed by a 600s dissociation period in K Buffer at pH 7.4 or pH 5.8. The data were processed and analyzed by the Gator evaluation software.
(§2) Non-fusion mAb were used for comparison.

[9] = target: T1, recombinant human complement C2 …; experiment: as above
Method: as §1, §2

[10] = target: T2, recombinant cynomolgus (cyno) …; experiment: binding kinetics (BLI presumed)
[11] = target: T2, recombinant cynomolgus (cyno) …; experiment: BLI (Gator), antibody on probe; 600 s association at pH 7.4, 600 s dissociation at pH 5.8
Method: as §1, §2

[12] = target: T1, recombinant human complement C2 …; experiment: as above
Method: as §1, §2

[13] = target: T1, recombinant human complement C2 …; experiment: binding kinetics, neutral pH (BLI presumed)
[14] = target: T2, recombinant cynomolgus (cyno) …; experiment: BLI (Gator); ratio of dissociation at pH 5.8 to pH 7.4
Method: as §1, §2

[15] = target: T1, recombinant human complement C2 …; experiment: as above
Method: as §1, §2

[16] = target: T2, recombinant cynomolgus (cyno) …; experiment: ELISA

B1: 3.2pHGL (3.2 pH construct derived from a human germline framework sequence) (antibody, V domains shown)
VH: EVQLLESGGGLVQPGGSLRLSCAASGFTFRHYAMSWVRQAPGKGLEWVSLISGSGASTHYADSVKGRFTISRDNSKNTLYLQMNSLRAEDTAVYYCAKDSLAVAGSEYFQHWGQGTLVTVSS
VL: SYVLTQPPSVSVAPGQTARITCGHNYFGGKSVHWYQQKPGQAPVLVVYDDSDRPSGIPERFSGSNSGNTATLTISRVEAGDEADYYCQVYDTSSDHWVFGGGTKLTVL
notes: also called germlined 3.2 pH
Kd [1]: 0.138 nM
koff [1]: 4.05e-05 s⁻¹
kon [1]: 294000 M⁻¹ s⁻¹

B2: anti-C2 antibody 149.46 (antibody, IgG4, V domains shown)
VH: QVQLQQSGPGLVKPSQPLSLTCAISGDSVSSNSATWSWIRQSPSRGLEWLGRTYYRSKWYHDYAVFVKSRMTINPDTSKNQFSLQLNSVTPEDTAVYYCARGGMPASDIPHFDNWGQGILVTVSS
VL: SYELTQPPSLSVSPGQTASITCSGHKLGDKYACWYQQKPGQSPVLVIYQDNKRPSGIPERFSGSNSGNTATLTISGTQALDEADYYCQAWDSITYVFGTGTKVTVL
notes: Recombinant
binding result [2]: binds
EC50 [3]: 0.042 nM
EC50 [4]: 0.165 nM
EC50 [5]: 0.0457 nM

B4: 3.2 H2-10 (a representative pH dependent 3.2 comprising a histidine mutation in the heavy chain CDR2) (antibody, V domains shown)
VH: B1 VH with K76E, T78M
VL: B1 VL with P7A, H24G, K38R, N65K, T73A, D84A
Dissociation (%) pH 7.4 [8]: 8.35%
Dissociation (%) pH 7.4 [9]: 6.91%
Kd [10]: 0.222 nM
koff [10]: 9.84e-05 s⁻¹
kon [10]: 442000 M⁻¹ s⁻¹
Dissociation (%) pH 5.8 [11]: 62.9%
Dissociation (%) pH 5.8 [12]: 56.7%
Kd [13]: 0.172 nM
koff [13]: 6.05e-05 s⁻¹
kon [13]: 353000 M⁻¹ s⁻¹
Fold dissociation pH 5.8/pH 7.4 [14]: 7.53 fold
Fold dissociation pH 5.8/pH 7.4 [15]: 8.2 fold

The next lines start with the values.

Kd [6]: 0.149 nM
koff [6]: 4.58e-05 s⁻¹
kon [6]: 309000 M⁻¹ s⁻¹
Kd [7]: 0.101 nM
koff [7]: 3.33e-05 s⁻¹
kon [7]: 330000 M⁻¹ s⁻¹
B3: 3.2pHGL-IgG1-LALA-LS (3.2 pH-IgG1-LALA-LS derived from germline) (antibody, V domains shown)
VH: B1 VH
VL: SYVLTQPPSVSVAPGQTARITCGHNYFGGKSVHWYQQKPGQAPVLVVYDDSDRPSGIPERFSGSNSGNTATLTISRVEAGDEADYYCQVYDTSSDHWVFGGGTKLTVLG
notes: Heavy chain put together from the named parts

EC50 [3]: 0.123 nM
EC50 [16]: 0.263 nM
EC50 [4]: 0.054 nM
EC50 [5]: 0.124 nM
B5: anti-C2 antibody 59.45 (antibody, IgG4, V domains shown)
VH: QLQLQESGPGLVKTSETLSLTCTVSGGSITSGVYYWGWIRQPPGKGLEWIGSIYHGGNTYNNPSLKSRVTIFIDTSKNQFSLKLSSVTAADTAVYYCAEGVSSGWSYYFDYWGQGTLVTVSS
VL: SSELTQDPAVSVALGQTVRITCQGDSLRRFYASWYQQKPGQAPVLVGYGKNNRPSGIPDRFSGSTSGNAASLTITGSQAEDEADYYCNSRDSSGDHLIFGGGTKLTVL
notes: Recombinant
